Assay results as given in patent US20210061861A1, “D-PEPTIDIC COMPOUNDS FOR VEGF” (Reflexion Pharmaceuticals, Inc., priority 2019, published 2021).
One block for each molecule: values may come before it. Bridges are numbered along the chain shown (N, C = ends). Where no end group is shown, it is not given here. [ ]: non-standard residue; d: D form.

Columns and labels:
[1] = biological target: T1, VEGF-A binding to VEGFR1 receptor (Homo sapiens, UniProt P15692); assay: VEGF-A:VEGFR1 inhibition in Octet assay; format: biochemical; conditions: for inhibition at 0.08 µM: read-out: % inhibition at 80 nM compound, D-peptidic compounds
T1 sequence (P15692 214-315 limits assumed): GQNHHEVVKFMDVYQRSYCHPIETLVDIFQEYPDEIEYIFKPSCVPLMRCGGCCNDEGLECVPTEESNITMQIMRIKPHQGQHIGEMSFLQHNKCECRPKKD

[2] = system: HUVEC cell proliferation; conditions: read-out: IC50 for inhibition of cell proliferation in response to VEGF signaling; HUVEC, recombinant VEGF-A
[3] = system: VEGF-A signaling through VEGFR2; assay: VEGFR2 luciferase reporter cell signaling assay (KDR/NFAT-RE HEK293); format: cell-based; conditions: 150 pM VEGF-A; read-out: IC50, inhibition of VEGFR2 signaling (luciferase)
[4] = biological target: T2, VEGF-A (Homo sapiens, UniProt P15692); conditions: 5 μM 978336 to saturation, then 5 μM 978336 plus 1 μM 11055
T2 sequence (P15692 214-315): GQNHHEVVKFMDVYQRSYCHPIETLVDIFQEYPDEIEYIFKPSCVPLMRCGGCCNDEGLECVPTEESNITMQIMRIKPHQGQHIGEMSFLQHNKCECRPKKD

[5] = biological target: T3, L-VEGF-A (Homo sapiens, UniProt P15692); assay: kd (s^-1)
T3 construct: Biotinylated VEGF-A(8-109) was immobilized on a biotin CAPture chip

[6] = biological target: T3, L-VEGF-A; assay: ka (10^6/M^-1s^-1)
[7] = biological target: VEGF-A (form not stated) (UniProt P15692); assay: Octet; inhibition of VEGF-A (10 nM) binding to VEGFR1
[8] = biological target: D-VEGF-A (8-109), synthetic mirror-image protein (Homo sapiens (Human)) (UniProt P15692); assay: competitive phage ELISA; L-peptidic compound on D-VEGF-A
[9] = biological target: D-VEGF-A (8-109), synthetic mirror-image protein (Homo sapiens (Human)) (UniProt P15692); assay: SPR; L-peptidic compound on D-VEGF-A
[10] = biological target: T4, Biotinylated human VEGF-A121 (human, UniProt P15692-9 27-147, biotinylated); assay: equilibrium VEGF-A121/VEGFR1 blocking ELISA
T4 construct: Bought; also called VEGF-A121-biot
T4 sequence (looked up): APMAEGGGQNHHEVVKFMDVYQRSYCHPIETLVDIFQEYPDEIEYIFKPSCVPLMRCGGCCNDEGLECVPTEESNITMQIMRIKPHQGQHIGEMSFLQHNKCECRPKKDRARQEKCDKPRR

[11] = biological target: VEGF-A (form not stated) (UniProt P15692); assay: cell-based or functional assay
[12] = biological target: L-VEGF-A (8-109) (Homo sapiens (Human)) (UniProt P15692); assay: SPR
[13] = biological target: T4, Biotinylated human VEGF-A121; assay: non-equilibrium VEGF-A121 blocking ELISA
[14] = biological target: VEGF-A (form not stated) (UniProt P15692); assay: VEGF-A blocking ELISA on coated VEGFR1-Fc
[15] = biological target: L-VEGF-A (8-109) (Homo sapiens (Human)) (UniProt P15692); assay: SPR per Examples 7, 8, 11 (method not named in Table 4)
[16] = biological target: L-VEGF-A (8-109) (Homo sapiens (Human)) (UniProt P15692); assay: SPR, biotinylated VEGF-A(8-109) on a biotin CAPture chip, D-protein in solution, global single site kinetic fit
[17] = biological target: VEGF-A (form not stated) (UniProt P15692); assay: equilibrium VEGF-A/VEGFR1 blocking ELISA, 150 pM VEGF-A
[18] = biological target: L-VEGF-A (8-109) (Homo sapiens (Human)) (UniProt P15692); assay: SPR on natural L-VEGF-A
[19] = biological target: VEGF-A (form not stated) (UniProt P15692); assay: Octet; inhibition of VEGF-A binding to VEGFR1
[20] = biological target: T5, VEGF-A (form not stated) (UniProt P15692-9 27-147, limits assumed); assay: equilibrium VEGF-A/VEGFR1 blocking ELISA, 150 pM VEGF-A; soluble VEGFR1-Fc against coated VEGFR1-Fc
T5 construct: also called biotinylated-VEGF-A; recombinant VEGF-A
T5 sequence (looked up): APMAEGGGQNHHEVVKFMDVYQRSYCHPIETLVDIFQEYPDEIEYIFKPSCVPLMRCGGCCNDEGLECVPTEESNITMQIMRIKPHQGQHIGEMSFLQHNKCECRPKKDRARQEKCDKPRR

[21] = biological target: T4, Biotinylated human VEGF-A121; assay: equilibrium VEGF-A121/VEGFR1 blocking ELISA; soluble VEGFR1-Fc against coated VEGFR1-Fc

Molecule: [dP][dA][dL][dL][dK][dN][dA][dK][dE][dD][dA][dI][dA][dE][dL][dK][dK][dA]G[dI][dT][dE][dP][dH][dV][dI][dS][dF][dI][dN][dH][dA][dP][dY][dV][dS][dH][dV][dN]G[dL][dK][dN][dA][dI][dL]G[dR][dT][dV][dP] [1.1.1.2 (pa, pis), pallknakedaiaelkkaGitephvisfinhapyvshvnGlknailGrtvp]
- inhibition at 0.08 µM [1]: 18%

Molecule: [dT][dI][dD][dQ][dW][dL][dL][dK][dN][dA][dK][dE][dD][dA][dI][dA][dE][dL][dK][dK][dA]G[dI][dT][dE][dP][dH][dV][dI][dS][dF][dI][dN][dH][dA][dP][dY][dV][dS][dH][dV][dN]G[dL][dN][dA][dI][dL]G[dR][dT][dV][dP] [1.1.1(c21a) (-kaha, Grtvp), tidqwllknakedaiaelkkaGitephvisfinhapyvshvnGlnailGrtvp]
- inhibition at 0.08 µM [1]: 27%

Molecule: tidqwllknakedaiaelkkaGitephvisfinhapyvshvnGlknailkaha [Compound 11055]
- binding of 978336 and 11055 together to VEGF-A [4]: additive binding

B1: 1.1 (D-peptidic) (designed binder)
chain: [dT][dI][dD][dQ][dW][dL][dL][dK][dN][dA][dK][dE][dD][dA][dI][dA][dE][dL][dK][dK][dA]G[dI][dT][dE][dD][dH][dV][dF][dN][dF][dI][dN][dH][dA][dP][dY][dV][dS][dH][dV][dN]G[dL][dK][dN][dA][dI][dL][dK][dA][dH][dA]
- IC50 [7]: 105 nM

B2: 1.1.1(c21a) (-tidqw, -kaha, edwyl) (L-peptidic) (designed binder)
chain: LLKNAKEDAIAELKKAGITEPHVISFINHAPYVSHVNGLKNAILEDWYL
- IC50 [8]: 0.86 to 1.1 nM

B3: 1.1 (-kaha, GehGsp) (L-peptidic) (designed binder)
chain: TIDQWLLKNAKEDAIAELKKAGITEDHVFNFINHAPYVSHVNGLKNAILGEHGSP
- IC50 [8]: 14 nM

B4: 1.1 (-tidqw) (L-peptidic) (designed binder)
chain: LLKNAKEDAIAELKKAGITEDHVFNFINHAPYVSHVNGLKNAILKAHA
- Kd [9]: 450 nM

B5: 1.1 (L-peptidic) (designed binder)
chain: TIDQWLLKNAKEDAIAELKKAGITEDHVFNFINHAPYVSHVNGLKNAILKAHA
- IC50 [8]: 100 to 105 nM
- Kd [9]: 140 nM

B6: 1.1 (-kaha, adfl) (L-peptidic) (designed binder)
chain: TIDQWLLKNAKEDAIAELKKAGITEDHVFNFINHAPYVSHVNGLKNAILADFL
- IC50 [8]: 12 nM

B7: 1.1 (-kaha, edyl) (L-peptidic) (designed binder)
chain: TIDQWLLKNAKEDAIAELKKAGITEDHVFNFINHAPYVSHVNGLKNAILEDYL
- IC50 [8]: 5 nM

The next lines start with results.

- IC50 [3]: 0.53 nM
Molecule: bevacizumab [reference compound]
- IC50 [2]: 0.7 nM

- % inhibition at 80 nM compound ([1]; D-peptidic compounds): 68%
Molecule: tidqwllknakedaiaelkkaGitephvisfinhapyvshvnGlknailkahac(acetyl)

- kd [5]: 0.0052 s⁻¹
- ka (10^6/M^-1s^-1) [6]: 2.14 10^6/M^-1s^-1
Molecule: yhiqwvcknakedaiaelkkaGitephvisfinhapncshvnGlknailkaha ([dY][dH][dI][dQ][dW][dV][dC][dK][dN][dA][dK][dE][dD][dA][dI][dA][dE][dL][dK][dK][dA]G[dI][dT][dE][dP][dH][dV][dI][dS][dF][dI][dN][dH][dA][dP][dN][dC][dS][dH][dV][dN]G[dL][dK][dN][dA][dI][dL][dK][dA][dH][dA]-NH2; disulfide 7-38; not fully specified; printed as yhiqwvcknakedaiaelkkaGitephvisfinhapncshvnGlknailkaha) [Compound 979110]

- IC50 [10]: 7.6 nM
- HUVEC cell proliferation, apparent IC50 [11]: 131 nM
- HUVEC cell proliferation, potency against 11055 [11]: 4 fold
- fold decrease in HUVEC cell proliferation, potency against bevacizumab [11]: 185 fold
- fold affinity improvement over RFX-11055 [12]: 19 fold
- fold improvement of VEGF binding over 11055 [12]: 10 fold
- fold improvement of IC50 over RFX-11055 [13]: 15 fold
- fold better IC50 than 11055 [14]: 14.8 fold
- Kd [15]: 2.3 nM
- koff [16]: 0.0052 s⁻¹
- kon [16]: 2.14e+06 M⁻¹ s⁻¹
- IC50 [17]: 7 nM
- Kd [18]: 3.6 nM
B8: RFX-979110 (designed binder)
chain: [dY][dH][dI][dQ][dW][dV][dC][dK][dN][dA][dK][dE][dD][dA][dI][dA][dE][dL][dK][dK][dA]G[dI][dT][dE][dP][dH][dV][dI][dS][dF][dI][dN][dH][dA][dP][dN][dC][dS][dH][dV][dN]G[dL][dK][dN][dA][dI][dL][dK][dA][dH][dA]-NH2
modifications: disulfide 7-38; not fully specified

- % inhibition at 80 nM compound [19]: 18%
B9: 1.1.1.2 (pa, pis) (D-peptidic) (designed binder)
chain: [dP][dA][dL][dL][dK][dN][dA][dK][dE][dD][dA][dI][dA][dE][dL][dK][dK][dA]G[dI][dT][dE][dP][dH][dV][dI][dS][dF][dI][dN][dH][dA][dP][dY][dV][dS][dH][dV][dN]G[dL][dK][dN][dA][dI][dL]G[dR][dT][dV][dP]

- IC50 [20]: 0.22 nM
- IC50 [21]: 0.23 nM
B10: VEGFR1-Fc (Fc fusion, UniProt P17948 27-756, looked up)
chain: SKLKDPELSLKGTQHIMQAGQTLHLQCRGEAAHKWSLPEMVSKESERLSITKSACGRNGKQFCSTLTLNTAQANHTGFYSCKYLAVPTSKKKETESAIYIFISDTGRPFVEMYSEIPEIIHMTEGRELVIPCRVTSPNITVTLKKFPLDTLIPDGKRIIWDSRKGFIISNATYKEIGLLTCEATVNGHLYKTNYLTHRQTNTIIDVQISTPRPVKLLRGHTLVLNCTATTPLNTRVQMTWSYPDEKNKRASVRRRIDQSNSHANIFYSVLTIDKMQNKDKGLYTCRVRSGPSFKSVNTSVHIYDKAFITVKHRKQQVLETVAGKRSYRLSMKVKAFPSPEVVWLKDGLPATEKSARYLTRGYSLIIKDVTEEDAGNYTILLSIKQSNVFKNLTATLIVNVKPQIYEKAVSSFPDPALYPLGSRQILTCTAYGIPQPTIKWFWHPCNHNHSEARCDFCSNNEESFILDADSNMGNRIESITQRMAIIEGKNKMASTLVVADSRISGIYICIASNKVGTVGRNISFYITDVPNGFHVNLEKMPTEGEDLKLSCTVNKFLYRDVTWILLRTVNNRTMHYSISKQKMAITKEHSITLNLTIMNVSLQDSGTYACRARNVYTGEEILQKKEITIRDQEAPYLLRNLSDHTVAISSSTTLDCHANGVPEPQITWFKNNHKIQQEPGIILGPGSSTLFIERVTEEDEGVYHCKATNQKGSVESSAYLTVQGTSDKSN
notes: Bought; also called VEGFR1-Fc fusion; soluble decoy receptor VEGFR1-Fc; not shown: Fc part
